# In patent US9145555B2, “Integrated—ligand-responsive microRNAs” (California Institute of Technology, priority 2009, dated 2015):
# B1: th1: SEQ ID NO. 23; GFP-targeting miRNA with a theophylline aptamer in the basal segments (nucleic acid)
# chain: TCTAGAACGGGTCCTGATACCAGCGTGAGCGAGCACAAGCTGGAGTACAACTATAGTGAAGCCACAGATGTATAGTTGTACTCCAGCTTGTGCCCGCCTACGCCCTTGGCAGCAGGGCCC
# modifications: expressed or natural sequence
# notes: 23; GFP-targeting miRNA with a theophylline aptamer in the basal segments
# Legend:
# [1] = test system: transcript encoding the green fluorescent protein (GFP) in HEK 293 cells stably expressing GFP; test: Cell culture assay for miRNA activity (GFP silencing, transient transfection, flow cytometry); type: cell-based, human
# Source text: To examine the relationship between bulge size in the basal segments and gene silencing, we developed a general cell culture assay for miRNA activity (FIG. 1D). miRNAs designed to target a transcript encoding the green fluorescent protein (GFP) were inserted into the 3′ untranslated region (UTR) of a constitutively-expressed transcript encoding the fluorescent protein DsRed-Express. Plasmid DNA encoding the DsRed-Express construct was transfected into HEK 293 cells stably expressing GFP. The level of miRNA-mediated gene silencing was determined by flow cytometry analysis, where DsRed-Express levels were used to distinguish between transfected and untransfected cells. Using the cell culture assay, miRNAs with the same bulges as in the in vitro experiments were tested for silencing efficiency. […] Therefore, proper Drosha processing and gene silencing correlate with the size of the bulge in the miRNA basal segments.
# 293 and Flp-In-293 cells were maintained in DMEM supplemented with 10% FBS at 37° C. in a 5% CO2—humidified incubator. Transient transfections were conducted with Fugene 6 (Roche) according to the manufacturer's instructions one day after seeding. Immediately prior to transfection, the media was supplemented with the appropriate ligand at the specified concentration. Ligand concentrations were selected to maximize the regulatory response without severely compromising cell viability over the course of the transient assays. The media was replaced two days post-transfection. Three days post-transfection, the cells were trypsinized and subjected to flow cytometry analysis on a Cell Lab Quanta SC MPL (Beckman Coulter) and the resulting data was analyzed using the Flowjo software (Tree Star). Cells were initially gated for viability by electronic volume and side scatter. GFP and DsRed fluorescence of viable cells were measured through a 525 nm and […] band pass filter, respectively, after excitation with a 488 nm laser. Moderate to high DsRed levels served as a transfection control to gate between transfected and untransfected cells. Transfected cells could be distinguished from untransfected cells with this method even when four miRNAs were present in the 3′ UTR of the DsRed-Express encoding transcript (data not shown). GFP levels were calculated as the median fluorescence of the transfected population divided by that of the untransfected population (Beisel et al., 2008). This normalization approach corrected for the bias from pleiotropic effects associated with each small molecule. All ratios were normalized such that the value for DsRed-Express lacking a miRNA under the same conditions was set to 100%.
# [2] = test system: transcript encoding DsRed-Express; test: DsRed-Express levels, regulation in cis (transient transfection, flow cytometry); type: cell-based, human
# Source text: To assess the capacity for ligand-responsive miRNAs to regulate gene expression in cis, we measured expression levels for the transcripts harboring the ligand-responsive miRNAs targeting GFP and La. DsRed-Express levels were quantified by flow cytometry under similar conditions as the trans-targeted gene silencing experiments. […] Transcript analysis confirmed that the predominant regulatory mechanism of ligand-responsive miRNAs in cis is mRNA destabilization (FIG. 10).
# 293 and Flp-In-293 cells were maintained in DMEM supplemented with 10% FBS at 37° C. in a 5% CO2—humidified incubator. Transient transfections were conducted with Fugene 6 (Roche) according to the manufacturer's instructions one day after seeding. Immediately prior to transfection, the media was supplemented with the appropriate ligand at the specified concentration. […] Three days post-transfection, the cells were trypsinized and subjected to flow cytometry analysis on a Cell Lab Quanta SC MPL (Beckman Coulter) and the resulting data was analyzed using the Flowjo software (Tree Star). […] GFP and DsRed fluorescence of viable cells were measured through a 525 nm and […] band pass filter, respectively, after excitation with a 488 nm laser. […] GFP levels were calculated as the median fluorescence of the transfected population divided by that of the untransfected population (Beisel et al., 2008). […]
# [3] = test system: targeted GFP transcript; test: Self-targeting miRNA circuit, GFP levels in stable 293-Flp-In cells (flow cytometry, time course); type: cell-based, human; conditions: 1.5 mM theophylline for over a week; compared to th1′
# Source text: Ligand-responsive miRNAs can regulate genes in trans through RISC targeting and in cis through Drosha cleavage. A control system based on combining both modes of regulation into ‘self-targeting miRNAs’ may offer tighter regulation while still operating within the 3′ UTR of the transgene encoding transcript. We developed a dual-acting miRNA circuit based on the insertion of ligand-responsive miRNAs or miRNA clusters into the 3′ UTR of a targeted GFP transcript (FIG. 6A), where ligand control of Drosha cleavage is expected to impact direct destabilization of the cleaved transcript and subsequent RISC-mediated inactivation of other target transcripts. The resulting constructs were stably integrated into 293-Flp-In cells to ensure consistent expression for all constructs. […]
# Stable transfection of 293-Flp-In cell lines was performed using the Flp-In recombinase system (Invitrogen) according to the manufacturer's instructions to generate isogenic stable cell lines. Integrants were selected using 200 μg/ml hygromycin B (Invitrogen), whereas stable cell lines were maintained in 50 μg/ml hygromycin B. The procedure described above for the fluorescence expression analysis of transiently transfected cell populations was used to analyze the stable cell lines with notable exceptions. […]
# [4] = test system: immunopurified Drosha complex; test: In vitro Drosha cleavage assay; type: biochemical
# Description: We performed in vitro Drosha cleavage assays that mimic the first step in miRNA biogenesis to examine the relationship between bulge size and Drosha processing. RNAs with varying bulge sizes in the basal segments (FIG. 1B) were transcribed in vitro, incubated with immunopurified Drosha, and resolved by PAGE (FIG. 1C). […] Such abortive processing has been previously observed in vitro and attributed to DGCR8 recognition of the terminal loop instead of the miRNA basal segments (Han et al., 2006).
# Internally radiolabeled RNAs were transcribed in vitro from an annealed template containing the T7 promoter (5′-[…]-3′, where G is the first transcribed nucleotide) using the Ampliscribe T7 transcription kit (Epicentre) according to the manufacturer's instructions with [α-32P]-GTP. Following transcription and DNase treatment, the transcription product was purified through a NucAway clean-up column (Ambion) according to the manufacturer's instructions and gel-purified by PAGE.
# In vitro assays were conducted as described previously (Lee
# and Kim, 2007). Briefly, the Drosha complex was immunopurified from 293T cells transiently transfected with pCK-Drosha-FLAG and pCK-DGCR8-FLAG (9:1 mass ratio). […]
molecule,measurement,setting,value
B1,GFP silencing,"[1]; single copy, absence of ligand",silence GFP with comparable strength
same,response of GFP levels to theophylline,[1]; transient transfection with varying theophylline concentrations,theophylline dose-dependent increase in GFP expression levels
same,"GFP silencing and theophylline response of two miRNA copies, adjacent placement","[1]; two copies, shortest spacer (2 nt), 5 mM theophylline",compromised both silencing and the response to theophylline
same,"GFP silencing and theophylline response of two miRNA copies, increased spacer length","[1]; two copies, spacer up to 112 nt, 5 mM theophylline, versus single copy",restored and even exceeded the silencing activity and theophylline-dependence from a single copy
same,GFP silencing versus miRNA copy number,[1]; up to four copies separated by 112 nt spacer,GFP silencing increased with each additional copy
same,dynamic range (ratio of GFP levels in the presence or absence of theophylline) versus copy number,"[1]; up to four copies, 112 nt spacer, 5 mM theophylline",increased silencing and the dynamic range
same,ligand regulation of DsRed-Express in cis,[2]; 5 mM theophylline,two copies were sufficient to introduce ligand regulation
same,DsRed silencing in cis versus copy number,"[2]; one to four copies, transient transfection",DsRed silencing increased with increasing copy number
same,GFP silencing and dynamic range of self-targeting versus non-targeting miRNAs,[3],improved both GFP silencing and the dynamic range
same,size of primary products of Drosha processing,"[4]; in vitro transcribed miRNA, PAGE",~61 nts
same,effect of theophylline on Drosha processing,[4]; presence or absence of 5 mM theophylline,theophylline inhibited proper processing
